Experimental data published in US20220363770A1 (Amgen, published 2022).
Residue numbers refer to the chain shown, from its start. One block for each binder: values may come before it.

Key:
human PAC1 receptor = molecular target: T1, human PAC1 receptor (human, UniProt P41586 24-468); assay: cell-based or functional assay
T1 sequence: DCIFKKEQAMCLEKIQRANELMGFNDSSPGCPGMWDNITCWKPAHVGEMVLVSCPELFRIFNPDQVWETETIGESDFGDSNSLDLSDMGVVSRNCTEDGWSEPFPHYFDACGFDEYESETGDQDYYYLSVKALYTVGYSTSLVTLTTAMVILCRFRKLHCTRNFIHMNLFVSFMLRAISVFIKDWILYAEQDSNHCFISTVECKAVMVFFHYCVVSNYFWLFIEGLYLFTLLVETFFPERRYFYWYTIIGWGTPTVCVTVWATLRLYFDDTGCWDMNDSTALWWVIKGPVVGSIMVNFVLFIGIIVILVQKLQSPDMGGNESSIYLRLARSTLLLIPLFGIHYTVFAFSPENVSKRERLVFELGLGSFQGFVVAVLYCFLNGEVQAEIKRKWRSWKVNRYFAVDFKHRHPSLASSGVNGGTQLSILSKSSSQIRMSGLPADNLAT

human CGRP receptor = human CGRP receptor (human, UniProt Q16602 23-461; O60894 27-148); assay: cell-based or functional assay
Chain of human CGRP receptor (Q16602 23-461 limits assumed, chain 1 of 2): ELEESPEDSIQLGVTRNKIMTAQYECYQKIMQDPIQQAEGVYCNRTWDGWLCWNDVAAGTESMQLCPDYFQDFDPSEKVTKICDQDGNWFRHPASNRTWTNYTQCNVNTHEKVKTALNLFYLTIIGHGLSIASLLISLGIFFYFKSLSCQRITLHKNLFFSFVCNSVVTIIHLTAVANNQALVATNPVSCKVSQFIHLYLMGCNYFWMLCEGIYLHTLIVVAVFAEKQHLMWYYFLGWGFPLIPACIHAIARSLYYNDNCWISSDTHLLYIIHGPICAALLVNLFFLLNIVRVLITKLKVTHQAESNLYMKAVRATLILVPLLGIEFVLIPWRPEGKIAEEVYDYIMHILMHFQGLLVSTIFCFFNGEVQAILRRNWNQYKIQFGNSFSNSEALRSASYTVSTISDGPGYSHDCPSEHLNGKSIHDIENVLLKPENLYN
Chain of human CGRP receptor (O60894 27-148 limits assumed, chain 2 of 2): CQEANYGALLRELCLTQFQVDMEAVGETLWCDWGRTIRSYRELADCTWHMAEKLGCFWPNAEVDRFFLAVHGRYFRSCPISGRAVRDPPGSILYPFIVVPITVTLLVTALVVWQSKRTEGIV

B2: iPS:454829 (bispecific antibody, human IgG1, kappa, lambda, N297G)
light 1: QSVLTQPPSVSAAPGQKVTISCSGSRSNIGIKAVSWYQQLPGTAPKLLIYDNNKRPSGIPDRFSGSKSGTSATLGITGLQTGDEADYYCGTWDSRLSAVVFGGGTKLTVLGQPKAAPSVTLFPPSSEELQANKATLVCLISDFYPGAVTVAWKADSSPVKAGVETTTPSKQSNNKYAAKSYLSLTPEQWKSHRSYSCQVTHEGSTVEKTVAPTECS
heavy 1: QVQLVESGGGVVQPGRSLRLSCAASGFTFSSFGMHWVRQAPGKGLEWVAVISFDGSIKYSVDSVKGRFTISRDNSKNTLFLQMNSLRAEDTAVYYCARDRLNYYESSGYYHYKYYGMAVWGQGTTVTVSSASTKGPSVFPLAPSSKSTSGGTAALGCLVKDYFPEPVTVSWNSGALTSGVHTFPAVLQSSGLYSLESVVTVPSSSLGTQTYICNVNHKPSNTKVDKKVEPKSCDKTHTCPPCPAPELLGGPSVFLFPPKPKDTLMISRTPEVTCVVVDVSHEDPEVKFNWYVDGVEVHNAKTKPCEEQYGSTYRCVSVLTVLHQDWLNGKEYKCKVSNKALPAPIEKTISKAKGQPREPQVYTLPPSRKKMTKNQVSLTCLVKGFYPSDIAVEWESNGQPENNYKTTPPVLKSDGSFFLYSKLTVDKSRWQQGNVFSCSVMHEALHNHYTQKSLSLSPGK
light 2: EIVLTQSPATLSLSPGERATLSCRASQSVGRSLHWYQQKPGQAPRLLIKYASQSLSGIPARFSGSGSGTDFTLTISSLEPEDFAVYYCHQSSRLPFTFGPGTKVDIKRTVAAPSVFIFPPSDEQLKSGTASVVCLLNNFYPREAKVQWKVDNALQSGNSQESVTEQDSKDSTYSLESTLTLSKADYEKHKVYACEVTHQGLSSPVTKSFNRGEC
heavy 2: not shown
Fold-improvement over 29G4v22 Ab (human PAC1 receptor): 9.8 fold
IC50 (human PAC1 receptor): 700 pM
Fold-improvement over 4E4 Ab (human CGRP receptor): 1.8 fold
IC50 (human CGRP receptor): 360 pM

B3: iPS:454845 (bispecific antibody, human IgG1, kappa, lambda, N297G)
light 1: B2 light 1
heavy 1: B2 heavy 1
light 2: B2 light 2 with Q27K, R31W
heavy 2: not shown
Fold-improvement over 29G4v22 Ab (human PAC1 receptor): 8.2 fold
IC50 (human PAC1 receptor): 660 pM
Fold-improvement over 4E4 Ab (human CGRP receptor): 1.7 fold
IC50 (human CGRP receptor): 400 pM

B4: iPS:454825 (bispecific antibody, human IgG1, kappa, lambda, N297G)
light 1: B2 light 1
heavy 1: B2 heavy 1
light 2: B2 light 2 with Q27K
heavy 2: not shown
Fold-improvement over 29G4v22 Ab (human PAC1 receptor): 8.4 fold
IC50 (human PAC1 receptor): 790 pM
Fold-improvement over 4E4 Ab (human CGRP receptor): 2 fold
IC50 (human CGRP receptor): 290 pM

B6: iPS:454835 (bispecific antibody, human IgG1, kappa, lambda, N297G)
light 1: B2 light 1
heavy 1: B2 heavy 1
light 2: B2 light 2 with Q27K
heavy 2: not shown
Fold-improvement over 29G4v22 Ab (human PAC1 receptor): 9.3 fold
IC50 (human PAC1 receptor): 730 pM
Fold-improvement over 4E4 Ab (human CGRP receptor): 2.2 fold
IC50 (human CGRP receptor): 280 pM

B7: iPS:454823 (bispecific antibody, human IgG1, kappa, lambda, N297G)
light 1: B2 light 1
heavy 1: B2 heavy 1
light 2: B2 light 2 with Q27K
heavy 2: not shown
Fold-improvement over 29G4v22 Ab (human PAC1 receptor): 8.3 fold
IC50 (human PAC1 receptor): 800 pM
Fold-improvement over 4E4 Ab (human CGRP receptor): 1.5 fold
IC50 (human CGRP receptor): 390 pM

B9: iPS:454839 (bispecific antibody, human IgG1, kappa, lambda, N297G)
light 1: B2 light 1
heavy 1: B2 heavy 1
light 2: B2 light 2 with Q27K, R31W
heavy 2: not shown
Fold-improvement over 29G4v22 Ab (human PAC1 receptor): 8.6 fold
IC50 (human PAC1 receptor): 790 pM
Fold-improvement over 4E4 Ab (human CGRP receptor): 1.8 fold
IC50 (human CGRP receptor): 360 pM

B14: iPS:454843 (bispecific antibody, human IgG1, kappa, lambda, N297G)
light 1: B2 light 1
heavy 1: B2 heavy 1
light 2: B2 light 2 with Q27K, R31W
heavy 2: not shown
Fold-improvement over 29G4v22 Ab (human PAC1 receptor): 5.8 fold
IC50 (human PAC1 receptor): 930 pM
Fold-improvement over 4E4 Ab (human CGRP receptor): 1.6 fold
IC50 (human CGRP receptor): 420 pM

B16: iPS:454847 (bispecific antibody, human IgG1, kappa, lambda, N297G)
light 1: B2 light 1
heavy 1: B2 heavy 1
light 2: B2 light 2 with Q27K, R31W
heavy 2: not shown
Fold-improvement over 29G4v22 Ab (human PAC1 receptor): 6.7 fold
IC50 (human PAC1 receptor): 800 pM
Fold-improvement over 4E4 Ab (human CGRP receptor): 1.5 fold
IC50 (human CGRP receptor): 430 pM

B17: iPS:454831 (bispecific antibody, human IgG1, kappa, lambda, N297G)
light 1: B2 light 1
heavy 1: B2 heavy 1
light 2: B2 light 2
heavy 2: not shown
Fold-improvement over 29G4v22 Ab (human PAC1 receptor): 7.6 fold
IC50 (human PAC1 receptor): 900 pM
Fold-improvement over 4E4 Ab (human CGRP receptor): 1.7 fold
IC50 (human CGRP receptor): 380 pM

Continued, values first:

Fold-improvement over 29G4v22 Ab (human PAC1 receptor): 10.1 fold
IC50 (human PAC1 receptor): 650 pM
Fold-improvement over 4E4 Ab (human CGRP receptor): 1.6 fold
IC50 (human CGRP receptor): 370 pM
B1: iPS:454815 (bispecific antibody, human IgG1, kappa, lambda, N297G)
light 1: B2 light 1
heavy 1: B2 heavy 1
light 2: B2 light 2 with Q27K
heavy 2: not shown

Fold-improvement over 29G4v22 Ab (human PAC1 receptor): 9.6 fold
IC50 (human PAC1 receptor): 690 pM
Fold-improvement over 4E4 Ab (human CGRP receptor): 1.8 fold
IC50 (human CGRP receptor): 330 pM
B5: iPS:454819 (bispecific antibody, human IgG1, kappa, lambda, N297G)
light 1: B2 light 1
heavy 1: B2 heavy 1
light 2: B2 light 2 with Q27K
heavy 2: not shown

Fold-improvement over 29G4v22 Ab (human PAC1 receptor): 3.6 fold
IC50 (human PAC1 receptor): 1480 pM
Fold-improvement over 4E4 Ab (human CGRP receptor): 1.2 fold
IC50 (human CGRP receptor): 550 pM
B8: iPS:454849 (bispecific antibody, human IgG1, kappa, lambda, N297G)
light 1: B2 light 1
heavy 1: B2 heavy 1
light 2: B2 light 2 with Q27K, R31W
heavy 2: not shown

Fold-improvement over 29G4v22 Ab (human PAC1 receptor): 8.9 fold
IC50 (human PAC1 receptor): 750 pM
Fold-improvement over 4E4 Ab (human CGRP receptor): 1.7 fold
IC50 (human CGRP receptor): 340 pM
B10: iPS:454827 (bispecific antibody, human IgG1, kappa, lambda, N297G)
light 1: B2 light 1
heavy 1: B2 heavy 1
light 2: B2 light 2
heavy 2: not shown

Fold-improvement over 29G4v22 Ab (human PAC1 receptor): 6.8 fold
IC50 (human PAC1 receptor): 1010 pM
Fold-improvement over 4E4 Ab (human CGRP receptor): 1.4 fold
IC50 (human CGRP receptor): 450 pM
B11: iPS:454837 (bispecific antibody, human IgG1, kappa, lambda, N297G)
light 1: B2 light 1
heavy 1: B2 heavy 1
light 2: B2 light 2 with Q27K, S28A, R31W
heavy 2: not shown

Fold-improvement over 29G4v22 Ab (human PAC1 receptor): 10.7 fold
IC50 (human PAC1 receptor): 620 pM
Fold-improvement over 4E4 Ab (human CGRP receptor): 1.7 fold
IC50 (human CGRP receptor): 330 pM
B12: iPS:454817 (bispecific antibody, human IgG1, kappa, lambda, N297G)
light 1: B2 light 1
heavy 1: B2 heavy 1
light 2: B2 light 2 with Q27K
heavy 2: not shown

Fold-improvement over 29G4v22 Ab (human PAC1 receptor): 9.2 fold
IC50 (human PAC1 receptor): 720 pM
Fold-improvement over 4E4 Ab (human CGRP receptor): 1.5 fold
IC50 (human CGRP receptor): 390 pM
B13: iPS:454821 (bispecific antibody, human IgG1, kappa, lambda, N297G)
light 1: B2 light 1
heavy 1: B2 heavy 1
light 2: B2 light 2 with Q27K
heavy 2: not shown

Fold-improvement over 29G4v22 Ab (human PAC1 receptor): 8.8 fold
IC50 (human PAC1 receptor): 780 pM
Fold-improvement over 4E4 Ab (human CGRP receptor): 1.4 fold
IC50 (human CGRP receptor): 460 pM
B15: iPS:454841 (bispecific antibody, human IgG1, kappa, lambda, N297G)
light 1: B2 light 1
heavy 1: B2 heavy 1
light 2: B2 light 2 with Q27K, R31W
heavy 2: not shown

Fold-improvement over 29G4v22 Ab (human PAC1 receptor): 9 fold
IC50 (human PAC1 receptor): 760 pM
Fold-improvement over 4E4 Ab (human CGRP receptor): 2.6 fold
IC50 (human CGRP receptor): 240 pM
B18: iPS:454833 (bispecific antibody, human IgG1, kappa, lambda, N297G)
light 1: B2 light 1
heavy 1: B2 heavy 1
light 2: B2 light 2 with Q27K
heavy 2: not shown
